Test system: Escherichia coli TOP10
Experiment: shrunken log2 fold change of peptide-encoding DNA abundance (4.5 h post-induction vs induction); higher = less antimicrobial activity (less host growth inhibition)
Conditions: time post-induction: 4.5 h; library: site-saturation at positions 5, 18, 19, 20
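Further: peptides expressed intracellularly from a pBAD plasmid library in pooled LB shake-flask culture, induced with 0.3% L-arabinose, DNA abundance read by NGS, three biological replicates, DESeq2 with apeglm shrinkage.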

| Sequence | shrunken log2 fold change |
| --- | --- |
| RRIRYRPPRLPRPRPRPGHTPRP | -0.626 |
| RRIRYRPPRLPRPRPRPGKGPRP | -0.0232 |
| RRIRYRPPRLPRPRPRPGKPPRP | -0.0225 |
| RRIRYRPPRLPRPRPRPGLAPRP | 0.323 |
| RRIRYRPPRLPRPRPRPGLKPRP | -0.0239 |
| RRIRYRPPRLPRPRPRPGLLPRP | 0.0178 |
| RRIRYRPPRLPRPRPRPGLWPRP | 0.032 |
| RRIRYRPPRLPRPRPRPGNGPRP | -0.234 |
| RRIRYRPPRLPRPRPRPGNKPRP | -0.292 |
| RRIRYRPPRLPRPRPRPGNYPRP | -0.0361 |
| RRIRYRPPRLPRPRPRPGPRPRP | 0.744 |
| RRIRYRPPRLPRPRPRPGPSPRP | -0.125 |
| RRIRYRPPRLPRPRPRPGRWPRP | 0.475 |
| RRIRYRPPRLPRPRPRPGTPPRP | 1.16 |
| RRIRYRPPRLPRPRPRPGTRPRP | -0.393 |
| RRIRYRPPRLPRPRPRPGVVPRP | -0.354 |
| RRIRYRPPRLPRPRPRPGYNPRP | -0.0489 |
| RRIRYRPPRLPRPRPRPGYPPRP | -0.299 |
| RRIRYRPPRLPRPRPRPGYYPRP | -0.545 |
| RRIRYRPPRLPRPRPRPHCWPRP | -0.702 |
| RRIRYRPPRLPRPRPRPHDHPRP | 1.33 |
| RRIRYRPPRLPRPRPRPHFGPRP | 0.0439 |
| RRIRYRPPRLPRPRPRPHFHPRP | -0.489 |
| RRIRYRPPRLPRPRPRPHFQPRP | -0.399 |
| RRIRYRPPRLPRPRPRPHHMPRP | -0.311 |

| Sequence | shrunken log2 fold change |
| --- | --- |
| RRIRYRPPRLPRPRPRPHHTPRP | -0.418 |
| RRIRYRPPRLPRPRPRPHLVPRP | -0.0159 |
| RRIRYRPPRLPRPRPRPHMIPRP | -0.734 |
| RRIRYRPPRLPRPRPRPHNFPRP | -0.118 |
| RRIRYRPPRLPRPRPRPHQMPRP | -0.0207 |
| RRIRYRPPRLPRPRPRPHRVPRP | -0.248 |
| RRIRYRPPRLPRPRPRPHWHPRP | -0.912 |
| RRIRYRPPRLPRPRPRPHWNPRP | -0.799 |
| RRIRYRPPRLPRPRPRPHWPPRP | -0.322 |
| RRIRYRPPRLPRPRPRPHYFPRP | -0.833 |
| RRIRYRPPRLPRPRPRPHYPPRP | -1.84 |
| RRIRYRPPRLPRPRPRPHYYPRP | 0.0204 |
| RRIRYRPPRLPRPRPRPICLPRP | -0.219 |
| RRIRYRPPRLPRPRPRPIERPRP | 0.0253 |
| RRIRYRPPRLPRPRPRPIEVPRP | -0.217 |
| RRIRYRPPRLPRPRPRPIFMPRP | -0.269 |
| RRIRYRPPRLPRPRPRPIFPPRP | -0.23 |
| RRIRYRPPRLPRPRPRPIGCPRP | 0.225 |
| RRIRYRPPRLPRPRPRPIHHPRP | -1.62 |
| RRIRYRPPRLPRPRPRPIHMPRP | -0.0796 |
| RRIRYRPPRLPRPRPRPIIGPRP | -0.178 |
| RRIRYRPPRLPRPRPRPIIRPRP | -0.2 |
| RRIRYRPPRLPRPRPRPIKMPRP | -0.666 |
| RRIRYRPPRLPRPRPRPIKWPRP | 0.0101 |
| RRIRYRPPRLPRPRPRPILGPRP | -0.00192 |

| Sequence | shrunken log2 fold change |
| --- | --- |
| RRIRYRPPRLPRPRPRPILSPRP | -0.107 |
| RRIRYRPPRLPRPRPRPILWPRP | -0.0119 |
| RRIRYRPPRLPRPRPRPIMNPRP | -0.123 |
| RRIRYRPPRLPRPRPRPIMYPRP | -0.0119 |
| RRIRYRPPRLPRPRPRPINMPRP | -0.281 |
| RRIRYRPPRLPRPRPRPIPHPRP | 0.046 |
| RRIRYRPPRLPRPRPRPIQAPRP | 0.107 |
| RRIRYRPPRLPRPRPRPIRRPRP | -0.0923 |
| RRIRYRPPRLPRPRPRPISYPRP | -0.325 |
| RRIRYRPPRLPRPRPRPIVHPRP | -2.04 |
| RRIRYRPPRLPRPRPRPIVVPRP | -0.414 |
| RRIRYRPPRLPRPRPRPIWFPRP | -0.269 |
| RRIRYRPPRLPRPRPRPIWGPRP | -0.0267 |
| RRIRYRPPRLPRPRPRPIWRPRP | 0.0429 |
| RRIRYRPPRLPRPRPRPIYLPRP | -0.0172 |
| RRIRYRPPRLPRPRPRPKACPRP | -0.00227 |
| RRIRYRPPRLPRPRPRPKAMPRP | -0.0317 |
| RRIRYRPPRLPRPRPRPKASPRP | -0.131 |
| RRIRYRPPRLPRPRPRPKDFPRP | 0.00489 |
| RRIRYRPPRLPRPRPRPKFLPRP | -0.139 |
| RRIRYRPPRLPRPRPRPKFWPRP | 0.449 |
| RRIRYRPPRLPRPRPRPKGKPRP | -0.215 |
| RRIRYRPPRLPRPRPRPKHFPRP | -0.327 |
| RRIRYRPPRLPRPRPRPKHKPRP | -0.545 |
| RRIRYRPPRLPRPRPRPKHNPRP | -0.68 |

| Sequence | shrunken log2 fold change |
| --- | --- |
| RRIRYRPPRLPRPRPRPKHTPRP | -0.567 |
| RRIRYRPPRLPRPRPRPKIEPRP | -0.00459 |
| RRIRYRPPRLPRPRPRPKIMPRP | -0.131 |
| RRIRYRPPRLPRPRPRPKIVPRP | -0.188 |
| RRIRYRPPRLPRPRPRPKKIPRP | -0.483 |
| RRIRYRPPRLPRPRPRPKKNPRP | -0.231 |
| RRIRYRPPRLPRPRPRPKKYPRP | -0.86 |
| RRIRYRPPRLPRPRPRPKMCPRP | 0.00281 |
| RRIRYRPPRLPRPRPRPKPWPRP | 0.03 |
| RRIRYRPPRLPRPRPRPKRPPRP | 0.45 |
| RRIRYRPPRLPRPRPRPKRYPRP | -0.0281 |
| RRIRYRPPRLPRPRPRPKSDPRP | -0.299 |
| RRIRYRPPRLPRPRPRPKSGPRP | 0.0623 |
| RRIRYRPPRLPRPRPRPKTDPRP | -0.863 |
| RRIRYRPPRLPRPRPRPKTKPRP | -0.295 |
| RRIRYRPPRLPRPRPRPKTQPRP | 0.0853 |
| RRIRYRPPRLPRPRPRPKTVPRP | -1.07 |
| RRIRYRPPRLPRPRPRPKVFPRP | 0.149 |
| RRIRYRPPRLPRPRPRPKWMPRP | -0.27 |
| RRIRYRPPRLPRPRPRPKWSPRP | -0.0252 |
| RRIRYRPPRLPRPRPRPLAWPRP | -0.0165 |
| RRIRYRPPRLPRPRPRPLCSPRP | -0.0549 |
| RRIRYRPPRLPRPRPRPLDLPRP | -0.0215 |
| RRIRYRPPRLPRPRPRPLFGPRP | -0.0957 |
| RRIRYRPPRLPRPRPRPLFVPRP | -0.507 |

| Sequence | shrunken log2 fold change |
| --- | --- |
| RRIRYRPPRLPRPRPRPLGTPRP | -0.227 |
| RRIRYRPPRLPRPRPRPLHDPRP | -0.74 |
| RRIRYRPPRLPRPRPRPLILPRP | -0.767 |
| RRIRYRPPRLPRPRPRPLIMPRP | -0.0566 |
| RRIRYRPPRLPRPRPRPLKKPRP | -0.339 |
| RRIRYRPPRLPRPRPRPLLRPRP | -0.468 |
| RRIRYRPPRLPRPRPRPLNQPRP | -0.343 |
| RRIRYRPPRLPRPRPRPLPMPRP | -0.624 |
| RRIRYRPPRLPRPRPRPLRHPRP | -0.177 |
| RRIRYRPPRLPRPRPRPLRIPRP | -0.36 |
| RRIRYRPPRLPRPRPRPLRMPRP | 0.0288 |
| RRIRYRPPRLPRPRPRPLSTPRP | -0.29 |
| RRIRYRPPRLPRPRPRPLTFPRP | -0.696 |
| RRIRYRPPRLPRPRPRPLVPPRP | -0.539 |
| RRIRYRPPRLPRPRPRPLYSPRP | -1.15 |
| RRIRYRPPRLPRPRPRPLYYPRP | -1.44 |
| RRIRYRPPRLPRPRPRPMAHPRP | -0.0234 |
| RRIRYRPPRLPRPRPRPMCTPRP | 0.00658 |
| RRIRYRPPRLPRPRPRPMCVPRP | -0.227 |
| RRIRYRPPRLPRPRPRPMFCPRP | -0.297 |
| RRIRYRPPRLPRPRPRPMFEPRP | -0.315 |
| RRIRYRPPRLPRPRPRPMHCPRP | -0.0557 |
| RRIRYRPPRLPRPRPRPMHEPRP | -0.405 |
| RRIRYRPPRLPRPRPRPMHKPRP | -0.454 |
| RRIRYRPPRLPRPRPRPMHPPRP | -0.0223 |

| Sequence | shrunken log2 fold change |
| --- | --- |
| RRIRYRPPRLPRPRPRPMHTPRP | -0.254 |
| RRIRYRPPRLPRPRPRPMIPPRP | -0.727 |
| RRIRYRPPRLPRPRPRPMIVPRP | -0.209 |
| RRIRYRPPRLPRPRPRPMIYPRP | -0.0142 |
| RRIRYRPPRLPRPRPRPMKVPRP | 0.0135 |
| RRIRYRPPRLPRPRPRPMMDPRP | -0.103 |
| RRIRYRPPRLPRPRPRPMMIPRP | -0.00702 |
| RRIRYRPPRLPRPRPRPMNFPRP | -0.0135 |
| RRIRYRPPRLPRPRPRPMNQPRP | -0.383 |
| RRIRYRPPRLPRPRPRPMQAPRP | -0.0122 |
| RRIRYRPPRLPRPRPRPMQSPRP | 2.85 |
| RRIRYRPPRLPRPRPRPMREPRP | 0.529 |
| RRIRYRPPRLPRPRPRPMRHPRP | -0.0913 |
| RRIRYRPPRLPRPRPRPMSMPRP | -0.304 |
| RRIRYRPPRLPRPRPRPMTHPRP | -0.348 |
| RRIRYRPPRLPRPRPRPMTLPRP | -0.0394 |
| RRIRYRPPRLPRPRPRPMVAPRP | 0.133 |
| RRIRYRPPRLPRPRPRPMVIPRP | -0.0231 |
| RRIRYRPPRLPRPRPRPMVTPRP | 0.0309 |
| RRIRYRPPRLPRPRPRPNACPRP | -0.047 |
| RRIRYRPPRLPRPRPRPNCGPRP | -0.00237 |
| RRIRYRPPRLPRPRPRPNCMPRP | -0.974 |
| RRIRYRPPRLPRPRPRPNCRPRP | -0.134 |
| RRIRYRPPRLPRPRPRPNCWPRP | -0.36 |
| RRIRYRPPRLPRPRPRPNDRPRP | -0.0645 |

From the supplement of paper PMC9112550, “Optimization of the antimicrobial peptide Bac7 by deep mutational scanning” (BMC Biology, 2022)
